The text below walks through data of the supplement of paper PMC6755084.

The labels stand for the following.
B1: minF1; a variant is named by its letters at N, in order (parent)
chain: GAGACCGCAACTGAAAAGTTGTTANNNNAANGNNNGGTTGAATTTCTGCACGTAGAAGCAAAAGGC
B2: minF1; the commonest letter at each place (parent)
chain: GAGACCGCAACTGAAAAGTTGTTATCAGAAATGGATGGGTTGAATTTCTGCACGTAGAAGCAAAAGGC

The first data set covers variants of B1. In words: fraction ligated after 30 min (ligated reads / total reads); higher = more ligase activity. Particulars: with F1*subA RNA substrate (template-directed ligation), 42 °C. A digest of the protocol:
(§1)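 RNAs for minimized ligase ribozyme variants were transcribed with T7 from PCR-amplified oligo-pool templates and purified on gels. Ligated and unligated species were resolved on gels, converted to cDNA with barcoded primers, and read on a MiSeq with core bases filtered at quality ≥30. Fraction ligated per variant is the ratio of ligated reads to total reads.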
Take TCAATATG: the fraction ligated worked out at 0.00928. In the case of TCAGAGGA G32T G36T T38G T39G G40T A41T, the fraction ligated amounted to 0.00781.

In the case of CAGATGAT T38G G40T, the fraction ligated is 0.00757. For CAGAGATG A30T, the fraction ligated came to 0.0134. On the same count and under the same terms, with CAGATGTG the figure was 0.00446; with TCAGTATG, 0.011. For the variant CGAAGATG A24T A30T, the fraction ligated is 0.0664. Take TCAGAGTG G32T: the fraction ligated worked out at 0.00848. Still for that read-out and setting: with CAAAGATG A30T the figure was 0.00974. With CAGATATG A24T, the fraction ligated is 0.00546. As to TCGATGAT T38G G40T, the fraction ligated was 0.0543. TCAGAGAG G32T: the fraction ligated was determined as 0.011. On the same count and under the same terms, as for TCAGAGGA G32T G36T T38G G40T A41G, the figure is 0.0306. In the case of CAGATGTG A24T, the fraction ligated turned out to be 0.00498. TAGATGAG: the fraction ligated turned out to be 0.00428.

As for TAGATGAT, the fraction ligated came to 0.00267.

Consider TCAGAGAT G32T T38G G40T, for which the fraction ligated was 0.00839.

Turning to TCGAGATG A30T, the fraction ligated turned out to be 0.205. Consider CAGATGAT T38G G40T A41G, for which the fraction ligated turned out to be 0.0186.

In the case of TCAGAGGA G32T G36T T38G G40T, the fraction ligated turned out to be 0.0174. The same measure, in the same setting: with TCAGAGGA G32T the figure was 0.0037; with TCAGAGAT T38G G40T, 0.004. As to CAGAGATG A24T, the fraction ligated was 0.00326. For TCAGAATG G32T, the fraction ligated was determined as 0.00623. TCAATGAT T38G G40T: the fraction ligated was 0.0188. Same read-out and setting: as for TCAAGATG A30T, the figure is 0.111. Same read-out and setting: with CAGAGATG T23A A24T the figure was 0.00547. As to TCAGAGGG G32T, the fraction ligated was found to be 0.00695. Take TCAGAGTG: the fraction ligated turned out to be 0.0048. CAGATGAT A24T: the fraction ligated was found to be 0.00819. In the case of CAGATGAT T23A A24T, the fraction ligated stood at 0.0249.

As for CAGATGAT, the fraction ligated came out at 0.0096.

CAGATGAG: the fraction ligated is 0.00664. Take TCGATGAG: the fraction ligated is 0.00384. Turning to TCGATGAT, the fraction ligated amounted to 0.0366. The same measure, in the same setting: with TCAATGTG the figure was 0.00417.

Variants of B2 are the subject of another data set. The data set is described as above. Conditions: with F1*subA RNA substrate (template-directed ligation), 42 °C. The method, boiled down:
as §1
Regarding G34T G37T, the fraction ligated came to 0.00356. In the case of G34T G37C, the fraction ligated came out at 0.00496.

With G34T G37A, the fraction ligated is 0.00473.

Regarding G37A A44G, the fraction ligated amounted to 0.00429. For the variant G37A A44T, the fraction ligated came to 0.00574. G37A A44C: the fraction ligated worked out at 0.00309. The same measure, in the same setting: as for A43G A44C, the figure is 0.00393. The same measure, in the same setting: with A43G A44T the figure was 0.00618; with A43G A44G, 0.00367. With G37T A43G, the fraction ligated stood at 0.00602. In the case of G37T A43C, the fraction ligated was 0.00313.

Regarding G37T A43T, the fraction ligated was 0.00731. Same read-out and setting: as for G42A A43G A44T, the figure is 0.00363; as for G42A A43G A44C, 0.00251; as for G42A A43G A44G, 0.00352. Consider A35C G42C, for which the fraction ligated was determined as 0.00254. Same read-out and setting: as for A35C G42T, the figure is 0.00281; as for A35C G42A, 0.00288; as for G37C A44C, 0.00161.

Turning to G37C A44T, the fraction ligated is 0.00681. On to G37C A44G, for which the fraction ligated turned out to be 0.00293. Regarding T36G A43G, the fraction ligated was determined as 0.00457. Consider T36G A43T, for which the fraction ligated was 0.00809. With T36G A43C, the fraction ligated was 0.00461. As for A35G A43G, the fraction ligated amounted to 0.00504. For the variant A35G A43C, the fraction ligated stood at 0.00434. In the case of A35G A43T, the fraction ligated amounted to 0.0109.

Take unchanged: the fraction ligated came out at 0.761. On to T36C A44C, for which the fraction ligated is 0.00404.

For T36C A44T, the fraction ligated turned out to be 0.0101.

For the variant T36C A44G, the fraction ligated stood at 0.00651. In the case of A35G G37C, the fraction ligated is 0.0017. With A35G G37T, the fraction ligated is 0.00458. Same read-out and setting: as for A35G G37A, the figure is 0.00295. As for G34T A44G, the fraction ligated was 0.00592.

Regarding G34T A44C, the fraction ligated is 0.00445. For G34T A44T, the fraction ligated was 0.00748. For T36A A44C, the fraction ligated was found to be 0.00684. Take T36A A44T: the fraction ligated amounted to 0.012.

Regarding T36A A44G, the fraction ligated turned out to be 0.00875. As to G34C G37A, the fraction ligated amounted to 0.00257. With G34C G37T, the fraction ligated was 0.00343. Same read-out and setting: as for G34C G37C, the figure is 0.00307; as for A35G G42C, 0.00281; as for A35G G42A, 0.0121. A35G G42T: the fraction ligated was determined as 0.00567. For A35T A43G, the fraction ligated was determined as 0.0022. The same measure, in the same setting: as for A35T A43T, the figure is 0.00405.
